The source of these data is PMC5640589.

The series deals with T1, His6-SACE_3446B (Saccharopolyspora erythraea A226), ORF:3b7da887.
T1 sequence: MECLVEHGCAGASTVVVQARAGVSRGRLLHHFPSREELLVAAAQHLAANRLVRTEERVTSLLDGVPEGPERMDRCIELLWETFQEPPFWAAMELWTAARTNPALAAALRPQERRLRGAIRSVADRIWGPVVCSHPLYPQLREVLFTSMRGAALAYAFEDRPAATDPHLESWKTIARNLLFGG
As to the kind of experiment: EMSA. The note with it: 10 mM Tris pH 7.5, 5 mM MgCl2, 50 mM EDTA ([…].

For “GCGAGTGTCCGTTCGAGTGGCGGCTTGCGCCCGATGCTAGTCGCGGTTGATCGGCGATCGCAGGTGCACGCGGTCGATCTTGACGGCTGGCGAGAGGTGCGGGGAGGATCTGACCGACGCGGTCCACACGTGGCACCGCGATGCTGTTGTGGGCTGGACAATCGTGCCGGTTGGTAGGATCCAGCG (double strand) [ermE promoter]”, the binding entry is recorded as “no binding”. Consider “GCGTCCCCCTACTCGACGACCACGCAATGGGCGAACAATATAGGAAGGATCAAGAGGTTGACATCGCCTCGTCGAGCCAACGAACCTGTGAACATCTGCATGTTGACAAGATCAACGGCGGCTACCTACTGTGGTGGCCCAGTGACGGGTTGCCGCACATCGCGCTGGGGAGATTCTTTGAATTTCGCCCGTAGCACCGACCTGGAAAGCGAGCAAATGCTCCG (double strand) [eryAI promoter]”, for which the binding entry is given as “no binding”.
